Article PMC4251702

How the values were obtained:
[1] = molecular target: rabbit muscle G-actin, biotinylated (rabbit) (UniProt P68135)
[2] = molecular target: P. falciparum F-actin, biotinylated (P. falciparum 3D7 (endogenous in merozoites)) (UniProt Q8I4X0); experiment: BLI
[3] = molecular target: P. falciparum G-actin, biotinylated (P. falciparum 3D7 (endogenous in merozoites)) (UniProt Q8I4X0); experiment: BLI

PfMTRAP cytoplasmic tail domain peptide (residues 452-498)
initial rate of polymerization of 2.5 μM pyrene-labelled rabbit actin with 50 μM MTRAP CTD peptide, without aldolase (control without addition 35, bovine serum albumin 34) (fluorescence units min^-1) [1]: 66

Plasmodium falciparum aldolase (from UniProt P14223 1-369) (enzyme)
Kd [2]: 370 nM
Kd [3]: 470 nM

RH1 cytoplasmic tail domain peptide (residues 2942-2971)
initial rate of polymerization of 2.5 μM pyrene-labelled rabbit actin with 50 μM RH1 CTD peptide, without aldolase (control without addition 35, bovine serum albumin 34) (fluorescence units min^-1) [1]: 69
